The values that follow come from the supplement of paper PMC5998384.

In series [1] the test system is HeLa Kyoto. Put plainly: thermal stability score vs G1/S (z-score of summed log2 fold changes over temperatures); higher = more thermally stable than in G1/S.
The subject of series [2] is HeLa Kyoto. Briefly: melting temperature (median over replicates), in situ; higher = more thermally stable.
In series [3] the test system is HeLa Kyoto. Put plainly: solubility change mitosis vs G1/S (difference of NP-40 vs SDS log2 ratios) (log2 ratio difference); higher = more soluble in mitosis.
The subject of series [4] is HeLa Kyoto. Briefly: solubility in G1/S (NP-40 vs SDS abundance) (log2 ratio); higher = more soluble. Conditions: cell cycle stage: G1/S.
The mark [5] stands for this setting: cell cycle stage: early G1 (4.5 h after nocodazole release).
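Wherever melting temperature (median over replicates), in situ is given: HeLa Kyoto cells synchronized by double thymidine or nocodazole block, proteins quantified by TMT10plex mass spectrometry, three independent biological replicates.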
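Wherever solubility change mitosis vs G1/S (difference of NP-40 vs SDS log2 ratios) is given: synchronized HeLa Kyoto cells (double thymidine block for G1/S, nocodazole release for mitosis), protein amounts in NP-40 versus SDS lysates quantified by mass spectrometry, three biological replicates.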
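Wherever solubility in G1/S (NP-40 vs SDS abundance) is given: HeLa Kyoto cells arrested at G1/S by double thymidine block, proteins quantified by TMT10plex mass spectrometry in mild NP-40 versus SDS extracts, three biological replicates.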
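Wherever thermal stability score vs G1/S (z-score of summed log2 fold changes over temperatures) is given: synchronized HeLa Kyoto cells, proteins quantified by TMT10plex mass spectrometry, three biological replicates, mitosis taken 0.5 h after nocodazole release, G1/S directly after double thymidine block.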

With “MVKLTAELIEQAAQYTNAVRDRELDLRGYKIPVIENLGATLDQFDAIDFSDNEIRKLDGFPLLRRLKTLLVNNNRICRIGEGLDQALPCLTELILTNNSLVELGDLDPLASLKSLTYLSILRNPVTNKKHYRLYVIYKVPQVRVLDFQKVKLKERQEAEKMFKGKRGAQLAKDIARRSKTFNPGAGLPTDKKKGGPSPGDVEAIKNAIANASTLAEVERLKGLLQSGQIPGRERRSGPTDDGEEEMEEDTVTNGS [SNRPA1]”, the thermal stability score in the series on HeLa Kyoto [1] (setting [5]) is 0.145; with HeLa Kyoto [1] (cell cycle stage: mitosis), -1.77. Moreover, the melting temperature with HeLa Kyoto [2] (cell cycle stage: G1/S) turned out to be 54 °C; in the series with HeLa Kyoto [2] (cell cycle stage: mitosis) it was 54.2 °C. Moreover, the “solubility change mitosis (log2)” value with HeLa Kyoto [3] came out at 0.21. Further, in the series on HeLa Kyoto [4], the “solubility in G1/S (log2)” value is 0.281.
As to “MAAVAATAAAKGNGGGGGRAGAGDASGTRKKKGPGPLATAYLVIYNVVMTAGWLVIAVGLVRAYLAKGSYHSLYYSIEKPLKFFQTGALLEILHCAIGIVPSSVVLTSFQVMSRVFLIWAVTHSVKEVQSEDSVLLFVIAWTITEIIRYSFYTFSLLNHLPYLIKWARYTLFIVLYPMGVSGELLTIYAALPFVRQAGLYSISLPNKYNFSFDYYAFLILIMISYIPIFPQLYFHMIHQRRKILSHTEEHKKFE [HACD2]”, the values for the thermal stability score in the series with HeLa Kyoto [1] (setting [5]) and in the series on HeLa Kyoto [1] (cell cycle stage: mitosis) were 0.894 and -0.449, respectively. Moreover, the melting temperature with HeLa Kyoto [2] (cell cycle stage: G1/S) came out at 54.2 °C; in the series with HeLa Kyoto [2] (cell cycle stage: mitosis), 55.4 °C. In addition, the “solubility change mitosis (log2)” value in the series with HeLa Kyoto [3] came to 0.15. Also, the “solubility in G1/S (log2)” value with HeLa Kyoto [4] is -0.368.
In the case of “MNGRVDYLVTEEEINLTRGPSGLGFNIVGGTDQQYVSNDSGIYVSRIKENGAAALDGRLQEGDKILSVNGQDLKNLLHQDAVDLFRNAGYAVSLRVQHRLQVQNGPIGHRGEGDPSGIPIFMVLVPVFALTMVAAWAFMRYRQQL [SYNJ2BP]”, the thermal stability score with HeLa Kyoto [1] (setting [5]) came to 1.82; with HeLa Kyoto [1] (cell cycle stage: mitosis), 1.39. Moreover, the melting temperature in the series on HeLa Kyoto [2] (cell cycle stage: G1/S) and in the series with HeLa Kyoto [2] (cell cycle stage: mitosis) was 51.6 °C each time. In the series on HeLa Kyoto [3], the “solubility change mitosis (log2)” value is -0.0614. The “solubility in G1/S (log2)” value with HeLa Kyoto [4] came out at 0.0992.
As to “MAPGCKTELRSVTNGQSNQPSNEGDAIKVFVRIRPPAERSGSADGEQNLCLSVLSSTSLRLHSNPEPKTFTFDHVADVDTTQESVFATVAKSIVESCMSGYNGTIFAYGQTGSGKTFTMMGPSESDNFSHNLRGVIPRSFEYLFSLIDREKEKAGAGKSFLCKCSFIEIYNEQIYDLLDSASAGLYLREHIKKGVFVVGAVEQVVTSAAEAYQVLSGGWRNRRVASTSMNRESSRSHAVFTITIESMEKSNEIVNIRTSLLNLVDLAGSERQKDTHAEGMRLKEAGNINRSLSCLGQVITALVDVGNGKQRHVCYRDSKLTFLLRDSLGGNAKTAIIANVHPGSRCFGETLSTLNFAQRAKLIKNKAVVNEDTQGNVSQLQAEVKRLKEQLAELASGQTPPESFLTRDKKKTNYMEYFQEAMLFFKKSEQEKKSLIEKVTQLEDLTLKKEKFIQSNKMIVKFREDQIIRLEKLHKESRGGFLPEEQDRLLSELRNEIQTLREQIEHHPRVAKYAMENHSLREENRRLRLLEPVKRAQEMDAQTIAKLEKAFSEISGMEKSDKNQQGFSPKAQKEPCLFANTEKLKAQLLQIQTELNNSKQEYEEFKELTRKRQLELESELQSLQKANLNLENLLEATKACKRQEVSQLNKIHAETLKIITTPTKAYQLHSRPVPKLSPEMGSFGSLYTQNSSILDNDILNEPVPPEMNEQAFEAISEELRTVQEQMSALQAKLDEEEHKNLKLQQHVDKLEHHSTQMQELFSSERIDWTKQQEELLSQLNVLEKQLQETQTKNDFLKSEVHDLRVVLHSADKELSSVKLEYSSFKTNQEKEFNKLSERHMHVQLQLDNLRLENEKLLESKACLQDSYDNLQEIMKFEIDQLSRNLQNFKKENETLKSDLNNLMELLEAEKERNNKLSLQFEEDKENSSKEILKVLEAVRQEKQKETAKCEQQMAKVQKLEESLLATEKVISSLEKSRDSDKKVVADLMNQIQELRTSVCEKTETIDTLKQELKDINCKYNSALVDREESRVLIKKQEVDILDLKETLRLRILSEDIERDMLCEDLAHATEQLNMLTEASKKHSGLLQSAQEELTKKEALIQELQHKLNQKKEEVEQKKNEYNFKMRQLEHVMDSAAEDPQSPKTPPHFQTHLAKLLETQEQEIEDGRASKTSLEHLVTKLNEDREVKNAEILRMKEQLREMENLRLESQQLIEKNWLLQGQLDDIKRQKENSDQNHPDNQQLKNEQEESIKERLAKSKIVEEMLKMKADLEEVQSALYNKEMECLRMTDEVERTQTLESKAFQEKEQLRSKLEEMYEERERTSQEMEMLRKQVECLAEENGKLVGHQNLHQKIQYVVRLKKENVRLAEETEKLRAENVFLKEKKRSES [KIF15]”, the values for the thermal stability score in the series with HeLa Kyoto [1] (setting [5]) and with HeLa Kyoto [1] (cell cycle stage: mitosis) were 0.584 and 1.61, respectively. The figures for the melting temperature in the series on HeLa Kyoto [2] (cell cycle stage: G1/S) and in the series with HeLa Kyoto [2] (cell cycle stage: mitosis) were 48.4 °C and 49.4 °C, respectively. In the series on HeLa Kyoto [3], the “solubility change mitosis (log2)” value was -0.0831. Moreover, in the series on HeLa Kyoto [4], the “solubility in G1/S (log2)” value worked out at 0.087.
